In patent publication US12077795B2, “Method for biocatalytic protein-oligonucleotide conjugation” (The Research Foundation for The State University of New York, priority 2016, dated 2024):

Test system: heterologous proteins fused to HST-I
Test: HST-I catalysed protein conjugation (optical assay to monitor HST-I)
Assay type: biochemical, Drosophila melanogaster
Procedure: Using an optical assay developed to monitor HST-I, heterologous proteins can be covalently modified at their C-terminus by cholesterol with a t1/2 of 10-20 min at pH 7.1, 25 degrees Celsius.

B1: HST-I: ~26 kDa autocatalytic C-terminal segment of the Hedgehog precursor from Drosophila melanogaster, SEQ ID NO.: 001 (protein)
chain: GCFTPESTALLESGVRKPLGELSIGDRVLSMTANGQAVYSEVILFMDRNLEQMQNFVQLHTDGGAVLTVTPAHLVSVWQPESQKLTFVFADRIEEKNQVLVRDVETGELRPQRVVKVGSVRSKGVVAPLTREGTIVVNSVAASCYAVINSQSLAHWGLAPMRLLSTLEAWLPAKEQLHSSPKVVSSAQQQNGIHWYANALYKVKDYVLPQSWRHD
modifications: Drosophila melanogaster
For B1, the “time for protein conjugation” value (in the absence of accessory proteins) was under 60 min and the “half time of conjugation” value (physiological buffer, room temperature) was at most 1 h.
